# From paper PMC5797019 (2017)
# Biological target: vp22-RelA302-316 peptide (herpes virus | , UniProt Q04206 302-316)
# Assay: SPR
binder,measurement,value
His-SETD6 (enzyme) MATQAKRPRVAGPVDGGDLDPVACFLSWCRRVGLELSPKVSERAGGRRTRGGARAALTSPPAQVAVSRQGTVAGYGMVARESVQAGELLFVVPRAALLSQHTCSIGGLLERERVALQSQSGWVPLLLALLHELQAPASRWRPYFALWPELGRLEHPMFWPEEERRCLLQGTGVPEAVEKDLANIRSEYQSIVLPFMEAHPDLFSLRVRSLELYHQLVALVMAYSFQEPLEEEEDEKEPNSPVMVPAADILNHLANHNANLEYSANCLRMVATQPIPKGHEIFNTYGQMANWQLIHMYGFVEPYPDNTDDTADIQMVTVREAALQGTKTEAERHLVYERWDFLCKLEMVGEEGAFVIGREEVLTEEELTTTLKVLCMPAEEFRELKDQDGGGDDKREEGSLTITNIPKLKASWRQLLQNSVLLTLQTYATDLKTDQGLLSNKEVYAKLSWREQQALQVRYGQKMILHQLLELTS,Kd,1100 nM
